Entries after “also recorded” stand apart in the source; their conditions may differ.
Experiments:
[1] = tested on: Huh7 human liver cell line; experiment: Luciferase expression from forskolin-inducible promoters, transient transfection of PM-RQ plasmid in Huh7; type: cell-based; parameters: luciferase activity following induction / fold induction of promoter (luciferase activity): dose or concentration left out as unconfirmed
Description: Luciferase readouts were normalised to β-galactosidase to produce normalised relative luminometer units (RLUs). β-galactosidase containing pcDNA6 plasmid was used as internal control for transfection efficiency (Thermofisher, V22020). β-galactosidase activity was measured as per manufacturer's instructions (Mammalian βGalactosidase Assay Kit, 75707/75710, Thermo Scientific) using 25 μl of lysate. 25 μl of lysate was transferred into a microplate well and mixed with 25 μl of β-galactosidase Assay Reagent, equilibrated to room temperature. The mixture was incubated at 37° C. for 30 min and absorbance measured at 405 nm.
The forskolin-inducible promoters were initially used to drive expression of luciferase in the Huh7 human liver cell line and the C2C12 […]. The promoter constructs were used to drive expression of luciferase in the PM-RQ plasmid. The tested promoters were synthesised directly upstream of the ATG of PM-RQ plasmid.
• Huh7 cells which are a human liver cell line • DPBS: without CaCl2, without MgCl2 (Gibco, 14190-094) • DMEM (Sigma, D6546) • FBS (Sigma, F9665) • Pen-Strep (Sigma, P4333) • Promega Fugene-HD (E2311) • Forskolin (Sigma, F6886) • NKH477 (Sigma, N3290) • LARII (Dual Luciferase Reporter 1000 assay system, Promega, E1980) • 48 well plates flat bottom (353230, Corning) • Trypsin-EDTA (25200-056, Gibco) • T25 & T75 flask (353108, 353136, Corning) • 15 ml Falcon tubes (430791, Corning) • Stripettes 5 ml, 10 ml and 25 ml (4101,4051,4251, Corning)
Cells were seeded onto a 48 well plate at a density of 25,000 cells/300 μl
• On the day of transfection, DNA to be transfected was diluted to a 100 ng/μl stock solution. DNA to be transfected was the RTV-017, RTV-019 or CMV-IE promoter driving luciferase in the PM-RQ plasmid. • Per 48 well transfection, 45 ng of DNA was mixed with 4.1 μl of Optimem medium. • 0.5 μl of […] was mixed with 4 μl of Optimem medium. • These 2 solutions were mixed and incubated at room temperature for 15 minutes. • The final solution was then added to the well drop wise. • 3 hrs after transfection the inducer was added to the appropriate wells at the indicated concentration. Inducer was forskolin at […].
• 24 hrs after induction, the luciferase activity was measured as described below.
• Luciferase activity was measured using LARII (Dual Luciferase Reporter 1000 assay system, Promega, E1980) • 24 hours after induction, the media was removed from the cells • The cells were washed once in 300 μl of DPBS. • Cells were lysed using 100 μl of passive lysis buffer and incubated with rocking for 15 minutes. • The cell debris was pelleted by centrifugation of the plate at max speed in a benchtop centrifuge for 1 min • For luciferase, 10 μl sample was transferred into white 96-well plate and luminescence measured by injection of 50 μl of LARII substrate
RTV-017 and RTV-019 were transiently transfected into the human liver cell line Huh7 (FIG. 2). RTV-019 was transiently transfected into the […] C2C12 (FIG. 3). The activity of the promoters was assessed using luciferase activity. The luciferase activity was measured with and without the presence of […] forskolin.

[2] = tested on: Huh7 human liver cell line; experiment: Luciferase expression from promoters in pAAV vector (with ITRs) in Huh7, forskolin or NKH477 induction; parameters: fold induction with forskolin: dose or concentration left out as unconfirmed
Description: The forskolin-inducible promoters RTV-017, RTV-019 and FORCYB1 were then used to drive expression of luciferase in a pAAV vector in the Huh7 human liver cell line. […] This experiment was performed to investigate the effect of the Inverted Terminal Repeats (ITRs) on the activity of the promoters.
The cells were seeded, transfected and induced as described above. Luciferase expression was measured as described above. In this experiment, the cells were induced by using 20 pM forskolin or 7.2 pM of the water soluble derivative NKH477.

[3] = tested on: HEK293-F; experiment: Luciferase time course under hypoxia, transiently transfected HEK293-F; type: cell-based, human; conditions: 5% oxygen, 3, 5 and 24 hrs
Description: The constructs were initially used to drive luciferase expression in HEK293-F and HEK293-T in hypoxia.
40 ml of cells were grown in a 250 ml vented Erlenmeyer flask (Sigma-Aldrich CLS431144) at 37° C., 20% O2, 8% CO2 with agitation at 100 rpm. Cells were seeded as described in the manufacturer's instructions (300,000 cells/ml). HEK293-F were obtained from Thermofisher, R79007.
One day before transfection, the cells were counted using a haemocytometer and split to 500,000 cells/ml.
On the day of transfection, the cells are seeded to 1,000,000 cells/ml in 500 μl of appropriate medium (Freestyle 293 expression medium, 12338002) in a 24 well plate. […] of DNA per well was then added to 10 μl of OptiMem medium (Thermofisher; 11058021) and incubated for 5 minutes at room temperature.
Concurrently, 0.625 μl of Max reagent (Thermofisher, 16447100) was made up to 10 μl by addition of OptiMem and incubated for 5 minutes at room temperature. After this incubation, both mixes were added to the same tube and incubated at room temperature for 25-30 minutes. […]
After transfection the cells were incubated for 24 hrs in normoxia conditions (20% oxygen) before being switched to a gas mix of 5% oxygen, 10% carbon dioxide and 85% nitrogen (hypoxia). […] Induction of the promoters was assessed by using luciferase activity after 3, 5 and 24 hrs in hypoxia.
Luciferase activity was measured using LARII (Dual Luciferase Reporter 1000 assay system, Promega, E1980).
Media was removed from the cells at the respective time point (0, 3, 5, 24 hrs after induction). […] 10 μl of supernatant was pipetted into white 96-well plate and luminescence measured by addition of 50 μl of LARII substrate.
β-galactosidase activity was measured as per manufacturer's instructions (Mammalian βGalactosidase Assay Kit, 75707/75710, Thermo Scientific) using 25 μl of lysate. […] The mixture was incubated at 37° C. for 30 min and absorbance measured at 405 nm.
Luciferase readouts were normalised to β-galactosidase to produce normalised relative luminometer units (RLUs).

| Molecule | luciferase activity without induction (background) ([1]; Huh7, before addition of forskolin) | luciferase activity following induction ([1]; Huh7, forskolin) | fold induction of promoter (luciferase activity) ([1]; Huh7 liver cells, PM-RQ plasmid, forskolin, 24 hrs after induction) [fold] | fold induction with forskolin ([2]; Huh7) [fold] | luciferase activity without induction (background) ([2]; Huh7) | fold induction with NKH477 ([2]; Huh7, 7.2 pM NKH477) [fold] | luciferase activity following induction ([2]; Huh7, or 7.2 pM NKH477) | effect of switch to hypoxia on luciferase activity [3] |
| --- | --- | --- | --- | --- | --- | --- | --- | --- |
| RTV-017: synthetic forskolin-inducible promoter, SEQ ID NO: 43; 8× AP1(1) TFBS and CMV-MP minimal promoter (nucleic acid, Synp-RTV-017, 8× AP1(1) TFBS and CMV-MP minimal promoter) DNA: TGAGTCAGATGATGCGTAGCTAGTAGTTGAGTCAGATGATGCGTAGCTAGTAGTTGAGTCAGATGATGCGTAGCTAGTAGTTGAGTCAGATGATGCGTAGCTAGTAGTTGAGTCAGATGATGCGTAGCTAGTAGTTGAGTCAGATGATGCGTAGCTAGTAGTTGAGTCAGATGATGCGTAGCTAGTAGTTGAGTCAGTAGTCGTATGCTGATGCGCAGTTAGCGTAGCTGAGGTACCGTCGACGATATCGGATCCAGGTCTATATAAGCAGAGCTCGTTTAGTGAACCGTCAGATCGCCTAGATACGCCATCCACGCTGTTTTGACCTCCATAGAAGATCGCCACC | low background activity | high activity; also recorded: much higher activity | 13 | 44 | low background activity | 23 | high activity |  |
| CMV minimal promoter: CMV minimal promoter, SEQ ID NO: 28; named as control in FIG. 13 legend (nucleic acid) DNA: AGGTCTATATAAGCAGAGCTCGTTTAGTGAACCGTCAGATCGCCTAGATACGCCATCCACGCTGTTTTGACCTCCATAGAAGATCGCCACC |  |  |  |  |  |  |  | does not change |

— US20230167458A1, “FORSKOLIN-INDUCIBLE PROMOTERS AND HYPOXIA-INDUCIBLE PROMOTERS” (ASKLEPIOS BIOPHARMACEUTICAL, INC., priority 2020, published 2023)
